Source: patent publication US20070218516A1 (UNITED STATES OF AMERICA AS REPRESENTED BY THE SERCRETARY …, published 2007)

B1: rHu-BF5-A6 (antibody, V domains shown)
VH: EVQLQQSGAELVKPGASVKLSCTASGFNIKDTFMHWVKQRPEQGLEWIGRIDPANGNTEYDPKFQGKATITADTSSNTVNLQLSSLTSEDTAVYYCASGGELGFPYWGQGTLVTVSA
VL: DIQMTQSPASLSASVGETVTITCRASGNIHNYLAWYQQKQGKSPQLLVYNAKTLADGVPSRFSGSGSGTQYSLKINSLQPEDFGSYYCQHFWSTPWTFGGG
B2: rHu-BF5-B1 (antibody, V domains shown)
VH: EVQLQQSGAELVKPGASVKLSCTASGFNIKDTFMHWVKQRPEQGLEWIGRIDPANGNTEYDPKFQGKATITADTSSNTVNLQLSSLTSEDTAVYYCASGGELGFPYWGQGTLVTVSA
VL: DIQMTQSPASLSASVGETVTITCRASGNIHNYLAWYQQKQGKSPQLLVYNAKTLADGVPSRFSGSGSGTQYSLKINSLQPEDFGSYYCQHFWSTPWTFGGG

How the values were obtained:
[1] = target: T1, botulinum neurotoxin serotype A (BoNT/A) (Clostridium botulinum, UniProt P0DPI0 2-1296); assay: capture ELISA, antibody coated at 5.0 ug/ml
T1 sequence (P0DPI0 2-1296 limits assumed): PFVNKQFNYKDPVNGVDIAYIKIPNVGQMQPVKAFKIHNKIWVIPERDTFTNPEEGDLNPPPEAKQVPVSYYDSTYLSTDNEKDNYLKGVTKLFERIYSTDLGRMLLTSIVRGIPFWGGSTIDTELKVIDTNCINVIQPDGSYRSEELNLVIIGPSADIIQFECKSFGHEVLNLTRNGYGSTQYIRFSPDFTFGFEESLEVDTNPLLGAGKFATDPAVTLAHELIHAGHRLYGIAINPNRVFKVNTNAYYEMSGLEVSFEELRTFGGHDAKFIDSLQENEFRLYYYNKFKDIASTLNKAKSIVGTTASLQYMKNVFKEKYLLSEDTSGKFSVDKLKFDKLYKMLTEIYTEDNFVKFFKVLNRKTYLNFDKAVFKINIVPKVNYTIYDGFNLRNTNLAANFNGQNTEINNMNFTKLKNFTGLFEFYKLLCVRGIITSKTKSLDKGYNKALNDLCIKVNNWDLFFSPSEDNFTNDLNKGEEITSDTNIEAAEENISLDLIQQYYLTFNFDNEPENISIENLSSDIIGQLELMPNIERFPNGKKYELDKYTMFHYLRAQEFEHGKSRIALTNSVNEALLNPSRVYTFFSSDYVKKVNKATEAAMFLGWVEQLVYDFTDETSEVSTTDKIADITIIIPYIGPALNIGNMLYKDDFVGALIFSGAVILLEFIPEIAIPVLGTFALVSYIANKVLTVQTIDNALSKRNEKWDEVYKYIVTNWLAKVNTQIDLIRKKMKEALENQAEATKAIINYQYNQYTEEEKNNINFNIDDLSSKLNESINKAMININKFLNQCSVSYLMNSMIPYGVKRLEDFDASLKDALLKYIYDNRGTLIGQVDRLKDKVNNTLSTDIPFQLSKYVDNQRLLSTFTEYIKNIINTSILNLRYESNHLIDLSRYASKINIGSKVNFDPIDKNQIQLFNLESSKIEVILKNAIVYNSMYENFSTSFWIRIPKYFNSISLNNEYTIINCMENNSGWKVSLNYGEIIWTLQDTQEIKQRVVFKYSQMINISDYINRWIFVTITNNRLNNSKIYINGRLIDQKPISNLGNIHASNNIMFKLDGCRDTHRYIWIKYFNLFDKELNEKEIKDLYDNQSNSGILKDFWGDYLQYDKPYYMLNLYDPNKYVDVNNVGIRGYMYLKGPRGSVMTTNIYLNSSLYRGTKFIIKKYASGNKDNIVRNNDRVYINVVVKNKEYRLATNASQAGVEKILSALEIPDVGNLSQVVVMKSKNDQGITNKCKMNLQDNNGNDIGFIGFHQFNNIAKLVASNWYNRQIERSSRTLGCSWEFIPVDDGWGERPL

[2] = target: T2, botulinum neurotoxin serotype B (BoNT/B) (Clostridium botulinum, UniProt P10844 2-1291); assay: capture ELISA, antibody coated at 5.0 ug/ml
T2 sequence: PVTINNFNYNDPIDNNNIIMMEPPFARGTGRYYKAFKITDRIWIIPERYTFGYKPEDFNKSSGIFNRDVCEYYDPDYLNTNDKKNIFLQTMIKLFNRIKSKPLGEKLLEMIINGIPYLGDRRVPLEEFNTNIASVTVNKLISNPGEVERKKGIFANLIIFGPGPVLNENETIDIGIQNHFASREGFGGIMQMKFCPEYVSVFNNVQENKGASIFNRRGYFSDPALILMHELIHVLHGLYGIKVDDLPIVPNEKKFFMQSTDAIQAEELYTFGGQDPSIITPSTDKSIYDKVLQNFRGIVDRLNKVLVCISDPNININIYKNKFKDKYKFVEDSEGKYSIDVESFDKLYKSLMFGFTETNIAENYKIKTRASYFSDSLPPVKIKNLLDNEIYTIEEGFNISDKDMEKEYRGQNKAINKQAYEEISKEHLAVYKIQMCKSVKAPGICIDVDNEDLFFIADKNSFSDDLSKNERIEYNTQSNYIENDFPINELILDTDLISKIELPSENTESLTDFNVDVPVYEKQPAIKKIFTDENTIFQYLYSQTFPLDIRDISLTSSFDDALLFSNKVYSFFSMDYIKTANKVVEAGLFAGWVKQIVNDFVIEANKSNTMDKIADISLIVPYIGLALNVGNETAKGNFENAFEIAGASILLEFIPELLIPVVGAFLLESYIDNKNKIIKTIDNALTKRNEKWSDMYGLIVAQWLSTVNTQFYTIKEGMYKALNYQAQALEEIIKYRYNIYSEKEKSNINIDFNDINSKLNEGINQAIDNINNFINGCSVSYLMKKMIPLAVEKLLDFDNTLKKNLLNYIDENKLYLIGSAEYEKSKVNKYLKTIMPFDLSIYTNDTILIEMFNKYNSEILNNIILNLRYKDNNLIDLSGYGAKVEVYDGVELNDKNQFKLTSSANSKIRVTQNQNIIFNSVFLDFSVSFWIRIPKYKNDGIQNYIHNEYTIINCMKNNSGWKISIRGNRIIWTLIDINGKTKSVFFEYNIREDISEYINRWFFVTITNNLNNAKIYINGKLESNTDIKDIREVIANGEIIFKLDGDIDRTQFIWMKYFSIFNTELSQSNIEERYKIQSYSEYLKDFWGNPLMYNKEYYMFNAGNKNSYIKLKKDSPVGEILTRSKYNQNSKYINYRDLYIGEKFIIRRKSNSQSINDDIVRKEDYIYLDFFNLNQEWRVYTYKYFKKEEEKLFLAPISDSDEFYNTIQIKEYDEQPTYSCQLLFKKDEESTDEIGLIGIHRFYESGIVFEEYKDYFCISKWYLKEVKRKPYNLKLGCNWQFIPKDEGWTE

[3] = target: T1, botulinum neurotoxin serotype A (BoNT/A); assay: direct ELISA, […], antibody at 1.25 ug/ml
[4] = target: T2, botulinum neurotoxin serotype B (BoNT/B); assay: direct ELISA, […], antibody at 1.25 ug/ml
[5] = target: T1, botulinum neurotoxin serotype A (BoNT/A); assay: capture ELISA titration, antibody at 5.0 ug/ml
[6] = target: T2, botulinum neurotoxin serotype B (BoNT/B); assay: capture ELISA titration, antibody at 5.0 ug/ml

Binder	detection limit [1]	detection limit [2]	detection limit [3]	detection limit [4]	lowest amount detected [5]	lowest amount detected [6]
B1	0.29 ng	0.35 ng	9.4 ng	11.8 ng	0.3 ng	0.4 ng
B2	0.29 ng	0.35 ng	9.4 ng	11.8 ng	0.3 ng	0.4 ng
